According to patent US20080176263A1, “Materials and Methods for Efficient and Accurate Detection of Analytes” (University of Florida Research Foundation, Inc., priority 2006, published 2008):
Where “and” joins values, the source holds several entries; their conditions need not be identical. Equal entries are not always repeated.

What was measured:
substrate TNO211 [1] = experiment: Study #3: protease detection sensitivity, visual detection under UV; format: biochemical; settings: within 10 minutes; from 17% and 28% of pronase activity
Description: To investigate the visual detection limits of pronase, standard curves (1000-0 ng) of the protease were reacted in 50, 100, and 200 uM substrate diluted in the assay buffer. Digital photographs were taken under white light and UV. These observations were compared to those obtained quantitatively using the fluorescence plate reader. The observed detection limits for pronase were used to calculate theoretical detection limits for MMP-2 and MMP-9 (17% and 28% as active as pronase, respectively).

substrate TNO211 [2] = experiment: Study #1: time-to-detection of protease activity, cleavage of substrate TNO211 by fluorescence; format: biochemical; settings: protease concentrations ≦100 ng/ml
Description: 1. Prepare a suitable standard curve diluted in enzyme buffer. Typically, a maximum of 50 ng/ml final protease concentration in the assay is used. Keep on ice until use.
2. Prepare the substrate solution by diluting the Stock Reconstituted Substrate (in DMSO) to 5.56 uM in the desired Assay Buffer (EDTA-free or EDTA-containing) to produce 90 ul of total EDTA-free or EDTA-containing Assay Buffer per well.
3. Pipette 90 ul substrate solution into each well to be assayed.
4. Take an initial fluorescence reading. To minimize interference due to the fluorescence of endogenous proteins in the samples, we routinely use excitation/emission wavelengths of 355/535 nm, respectively.
5. Pipette 10 ul standards, samples, or Enzyme Buffer (BLANK) into each well of the 96-well fluorescence assay plate.
6. Measure the change in fluorescence continuously until the standard range of interest is sufficiently resolved. Protect from light at RT or 37° C. between measurements.
7. Determine the best-fit curve relating the Change in Fluorescence (AF) vs.
[Protease]. […]
One hundred, 10, 1, and 0.1 ng of pronase, MMP-2, MMP-9, and clostridial collagenase were assayed in a total reaction volume of 100 ul for cleavage of substrate TNO211 as detected by fluorescence. The reactions were monitored for approximately one hour after the addition of the proteases.

B1: MMP-2: protease assayed for cleavage of substrate TNO211 (protein)
chain: YNFFPRKPKWDKNQITYRIIGYTPDLDPETVDDAFARAFQVWSDVTPLRFSRIHDGEADIMINFGRWEHGDGYPFDGKDGLLAHAFAPGTGVGGDSHFDDDELWTLGEGQVVRVKYGNADGEYCKFPFLFNGKEYNSCTDTGRSDGFLWCSTTYNFEKDGKYGFCPHEALFTMGGNAEGQPCKFPFRFQGTSYDSCTTEGRTDGYRWCGTTEDYDRDKKYGFCPETAMSTVGGNSEGAPCVFPFTFLGNKYESCTSAGRSDGKMWCATTANYDDDRKWGFCPDQGYSLFLVAAHEFGHAMGLEHSQDPGALMAPIYTYTKNFRLSQDDIKGIQELYGASPDIDLGTGPTPTLGPVTPEICKQDIVFDGIAQIRGEIFFFKDRFIWRTVTPRDKPMGPLLVATFWPELPEKIDAVYEAPQEEKAVFFAGNEYWIYSASTLERGYPKPLTSLGLPPDVQRVDAAFNWSKNKKTYIFAGDKFWRYNEVKKKMDPGFPKLIADAWNAIPDNLDAVVDLQGGGHSYFFKGAYYLKLENQSLKSVKFGSIKSDWLGC
Substrate TNO211 [1]
  theoretical detection limit calculated from pronase limit: approximately 735 ng
Substrate TNO211 [2]
  activity as % of pronase's observed activity: 17±4% and 17%
